Measured values as given in patent US10676749.

Tests used:
Experiment in all cases: cell_activity
[1] = test system: TALE-VP64 VEGF7-3 (synthetic); details: VEGF-A ELISA, 293 cells
[2] = test system: TALE-VP64 VEGF1-2 (synthetic); details: VEGF-A ELISA, 293 cells
[3] = test system: TALE-VP64 VEGF6-1 (synthetic); details: VEGF-A ELISA, 293 cells
[4] = test system: TALE-VP64 Ntf3-2 (synthetic); details: NTF3 qRT-PCR, 293 cells
[5] = test system: TALE-VP64 VEGF9-2 (synthetic); details: VEGF-A ELISA, 293 cells
[6] = test system: TALE-VP64 VEGF8-6 (synthetic); details: VEGF-A ELISA, 293 cells
[7] = test system: TALE-VP64 VEGF2-2 (synthetic); details: VEGF-A ELISA, 293 cells
[8] = test system: TALE-VP64 VEGF3-1 (synthetic); details: VEGF-A ELISA, 293 cells
[9] = test system: TALE-VP64 VEGF6-6 (synthetic); details: VEGF-A ELISA, 293 cells
[10] = test system: TALE-VP64 VEGF2-1 (synthetic); details: VEGF-A ELISA, 293 cells
[11] = test system: TALE-VP64 VEGF8-5 (synthetic); details: VEGF-A ELISA, 293 cells
[12] = test system: TALE-VP64 VEGF5-3 (synthetic); details: VEGF-A ELISA, 293 cells
[13] = test system: TALE-VP64 VEGF6-4 (synthetic); details: VEGF-A ELISA, 293 cells
[14] = test system: TALE-VP64 VEGF6-5 (synthetic); details: VEGF-A ELISA, 293 cells
[15] = test system: TALE-VP64 VEGF3-5 (synthetic); details: VEGF-A ELISA, 293 cells
[16] = test system: TALE-VP64 VEGF2-3 (synthetic); details: VEGF-A ELISA, 293 cells
[17] = test system: TALE-VP64 VEGF7-4 (synthetic); details: VEGF-A ELISA, 293 cells
[18] = test system: TALE-VP64 VEGF4-1 (synthetic); details: VEGF-A ELISA, 293 cells
[19] = test system: TALE-VP64 VEGF5-4 (synthetic); details: VEGF-A ELISA, 293 cells
[20] = test system: TALE-VP64 VEGF3-2 (synthetic); details: VEGF-A ELISA, 293 cells
[21] = test system: TALE-VP64 VEGF6-2 (synthetic); details: VEGF-A ELISA, 293 cells
[22] = test system: TALE-VP64 VEGF7-2 (synthetic); details: VEGF-A ELISA, 293 cells
[23] = test system: TALE-VP64 VEGF9-1 (synthetic); details: VEGF-A ELISA, 293 cells
[24] = test system: TALE-VP64 VEGF5-5 (synthetic); details: VEGF-A ELISA, 293 cells
[25] = test system: TALE-VP64 VEGF3-6 (synthetic); details: VEGF-A ELISA, 293 cells
[26] = test system: TALE-VP64 VEGF9-6 (synthetic); details: VEGF-A ELISA, 293 cells
[27] = test system: TALE-VP64 VEGF5-2 (synthetic); details: VEGF-A ELISA, 293 cells
[28] = test system: TALE-VP64 VEGF8-3 (synthetic); details: VEGF-A ELISA, 293 cells
[29] = test system: TALE-VP64 VEGF1-5 (synthetic); details: VEGF-A ELISA, 293 cells
[30] = test system: TALE-VP64 VEGF4-5 (synthetic); details: VEGF-A ELISA, 293 cells
[31] = test system: TALE-VP64 VEGF8-2 (synthetic); details: VEGF-A ELISA, 293 cells
[32] = test system: TALE-VP64 VEGF1-3 (synthetic); details: VEGF-A ELISA, 293 cells
[33] = test system: TALE-VP64 VEGF3-3 (synthetic); details: VEGF-A ELISA, 293 cells
[34] = test system: TALE-VP64 VEGF4-3 (synthetic); details: VEGF-A ELISA, 293 cells
[35] = test system: TALE-VP64 VEGF7-5 (synthetic); details: VEGF-A ELISA, 293 cells
[36] = test system: TALE-VP64 VEGF2-6 (synthetic); details: VEGF-A ELISA, 293 cells
[37] = test system: TALE-VP64 VEGF5-6 (synthetic); details: VEGF-A ELISA, 293 cells
[38] = test system: TALE-VP64 VEGF2-4 (synthetic); details: VEGF-A ELISA, 293 cells
[39] = test system: TALE-VP64 VEGF4-6 (synthetic); details: VEGF-A ELISA, 293 cells
[40] = test system: TALE-VP64 Ntf3-5 (synthetic); details: NTF3 qRT-PCR, 293 cells
[41] = test system: TALE-VP64 VEGF8-4 (synthetic); details: VEGF-A ELISA, 293 cells
[42] = test system: TALE-VP64 VEGF4-2 (synthetic); details: VEGF-A ELISA, 293 cells
[43] = test system: TALE-VP64 VEGF9-3 (synthetic); details: VEGF-A ELISA, 293 cells
[44] = test system: TALE-VP64 VEGF7-6 (synthetic); details: VEGF-A ELISA, 293 cells
[45] = test system: TALE-VP64 Ntf3-4 (synthetic); details: NTF3 qRT-PCR, 293 cells
[46] = test system: TALE-VP64 VEGF6-3 (synthetic); details: VEGF-A ELISA, 293 cells
[47] = test system: TALE-VP64 VEGF5-1 (synthetic); details: VEGF-A ELISA, 293 cells
[48] = test system: TALE-VP64 VEGF1-4 (synthetic); details: VEGF-A ELISA, 293 cells; site printed with S at position 6
[49] = test system: TALE-VP64 VEGF4-4 (synthetic); details: VEGF-A ELISA, 293 cells
[50] = test system: TALE-VP64 Ntf3-3 (synthetic); details: NTF3 qRT-PCR, 293 cells
[51] = test system: TALE-VP64 Ntf3-1 (synthetic); details: NTF3 qRT-PCR, 293 cells; weakest about 1000-fold
[52] = test system: TALE-VP64 VEGF1-6 (synthetic); details: VEGF-A ELISA, 293 cells
[53] = test system: TALE-VP64 VEGF2-5 (synthetic); details: VEGF-A ELISA, 293 cells
[54] = test system: TALE-VP64 VEGF9-4 (synthetic); details: VEGF-A ELISA, 293 cells
[55] = test system: TALE-VP64 VEGF1-1 (synthetic); details: VEGF-A ELISA, 293 cells; range 5.3-114 over 53 active TALEs
[56] = test system: TALE-VP64 VEGF3-4 (synthetic); details: VEGF-A ELISA, 293 cells
[57] = test system: TALE-VP64 VEGF9-5 (synthetic); details: VEGF-A ELISA, 293 cells
[58] = test system: TALE-VP64 VEGF8-1 (synthetic); details: VEGF-A ELISA, 293 cells

## TCCGTCAGCGCGACTGGTCA (double strand) [VEGF7-3 site]
[1]
  activity (fold activation): > 5.3

## TTGGGGGTGACCGCCGGA (double strand) [VEGF1-2 site]
[2]
  activity (fold activation): > 5.3

## TCCCAAGGGGGAGGGC (double strand) [VEGF6-1 site]
[3]
  activity (fold activation): > 5.3

## TCCGAACAGCTCCGCGCA (double strand) [Ntf3-2 site]
[4]
  activity (fold activation (approx)): > 1000

## TCCACCCCGCCTCCGGGC (double strand) [VEGF9-2 site]
[5]
  activity (fold activation): > 5.3

## TCCACTGTCCGCCGCCGGCCGGGGAG (double strand) [VEGF8-6 site]
[6]
  activity (fold activation): > 5.3

## TCCCGCAGCTGACCAGTC (double strand) [VEGF2-2 site]
[7]
  activity (fold activation): > 5.3

## TACCACCTCCTCCCCG (double strand) [VEGF3-1 site]
[8]
  activity (fold activation): > 5.3

## TCCCAAGGGGGAGGGCTCACGCCGCG (double strand) [VEGF6-6 site]
[9]
  activity (fold activation): > 5.3

## TCCCGCAGCTGACCAG (double strand) [VEGF2-1 site]
[10]
  activity (fold activation): > 5.3

## TCCACTGTCCGCCGCCGGCCGGGG (double strand) [VEGF8-5 site]
[11]
  activity (fold activation): > 5.3

## TGGACGCGGCGGCGAGCCGC (double strand) [VEGF5-3 site]
[12]
  activity (fold activation): > 5.3

## TCCCAAGGGGGAGGGCTCACGC (double strand) [VEGF6-4 site]
[13]
  activity (fold activation): > 5.3

## TCCCAAGGGGGAGGGCTCACGCCG (double strand) [VEGF6-5 site]
[14]
  activity (fold activation): > 5.3

## TACCACCTCCTCCCCGGCCGGCGG (double strand) [VEGF3-5 site]
[15]
  activity (fold activation): > 5.3

## TCCCGCAGCTGACCAGTCGC (double strand) [VEGF2-3 site]
[16]
  activity (fold activation): > 5.3

## TCCGTCAGCGCGACTGGTCAGC (double strand) [VEGF7-4 site]
[17]
  activity (fold activation): > 5.3

## TCCCCGGCCGGCGGCG (double strand) [VEGF4-1 site]
[18]
  activity (fold activation): > 5.3

## TGGACGCGGCGGCGAGCCGCGG (double strand) [VEGF5-4 site]
[19]
  activity (fold activation): > 5.3

## TACCACCTCCTCCCCGGC (double strand) [VEGF3-2 site]
[20]
  activity (fold activation): > 5.3

## TCCCAAGGGGGAGGGCTC (double strand) [VEGF6-2 site]
[21]
  activity (fold activation): > 5.3

## TCCGTCAGCGCGACTGGT (double strand) [VEGF7-2 site]
[22]
  activity (fold activation): > 5.3

## TCCACCCCGCCTCCGG (double strand) [VEGF9-1 site]
[23]
  activity (fold activation): > 5.3

## TGGACGCGGCGGCGAGCCGCGGGC (double strand) [VEGF5-5 site]
[24]
  activity (fold activation): > 5.3

## TACCACCTCCTCCCCGGCCGGCGGCG (double strand) [VEGF3-6 site]
[25]
  activity (fold activation): > 5.3

## TCCACCCCGCCTCCGGGCGCGGGCTC (double strand) [VEGF9-6 site]
[26]
  activity (fold activation): > 5.3

## TGGACGCGGCGGCGAGCC (double strand) [VEGF5-2 site]
[27]
  activity (fold activation): > 5.3

## TCCACTGTCCGCCGCCGGCC (double strand) [VEGF8-3 site]
[28]
  activity (fold activation): > 5.3

## TTGGGGGTGACCGCCGGAGCGCGG (double strand) [VEGF1-5 site]
[29]
  activity (fold activation): > 5.3

## TCCCCGGCCGGCGGCGGACAGTGG (double strand) [VEGF4-5 site]
[30]
  activity (fold activation): > 5.3

## TCCACTGTCCGCCGCCGG (double strand) [VEGF8-2 site]
[31]
  activity (fold activation): > 5.3

## TTGGGGGTGACCGCCGGAGC (double strand) [VEGF1-3 site]
[32]
  activity (fold activation): > 5.3

## TACCACCTCCTCCCCGGCCG (double strand) [VEGF3-3 site]
[33]
  activity (fold activation): > 5.3

## TCCCCGGCCGGCGGCGGACA (double strand) [VEGF4-3 site]
[34]
  activity (fold activation): > 5.3

## TCCGTCAGCGCGACTGGTCAGCTG (double strand) [VEGF7-5 site]
[35]
  activity (fold activation): > 5.3

## TCCCGCAGCTGACCAGTCGCGCTGAC (double strand) [VEGF2-6 site]
[36]
  activity (fold activation): > 5.3

## TGGACGCGGCGGCGAGCCGCGGGCAG (double strand) [VEGF5-6 site]
[37]
  activity (fold activation): > 5.3

## TCCCGCAGCTGACCAGTCGCGC (double strand) [VEGF2-4 site]
[38]
  activity (fold activation): > 5.3

## TCCCCGGCCGGCGGCGGACAGTGGAC (double strand) [VEGF4-6 site]
[39]
  activity (fold activation): > 5.3

## TCCCTCAATCTGGGAAAG (double strand) [Ntf3-5 site]
[40]
  activity (fold activation (approx)): > 1000

## TCCACTGTCCGCCGCCGGCCGG (double strand) [VEGF8-4 site]
[41]
  activity (fold activation): > 5.3

## TCCCCGGCCGGCGGCGGA (double strand) [VEGF4-2 site]
[42]
  activity (fold activation): > 5.3

## TCCACCCCGCCTCCGGGCGC (double strand) [VEGF9-3 site]
[43]
  activity (fold activation): > 5.3

## TCCGTCAGCGCGACTGGTCAGCTGCG (double strand) [VEGF7-6 site]
[44]
  activity (fold activation): > 5.3

## TACGCCTCAGACCTGATC (double strand) [Ntf3-4 site]
[45]
  activity (fold activation (approx)): > 1000

## TCCCAAGGGGGAGGGCTCAC (double strand) [VEGF6-3 site]
[46]
  activity (fold activation): > 5.3

## TGGACGCGGCGGCGAG (double strand) [VEGF5-1 site]
[47]
  activity (fold activation): > 5.3

## TTGGGGGTGACCGCCGGAGCGC (double strand) [VEGF1-4 site]
[48]
  activity (fold activation): > 5.3

## TCCCCGGCCGGCGGCGGACAGT (double strand) [VEGF4-4 site]
[49]
  activity (fold activation): > 5.3

## TTCCCCTGCTGGGTAGTG (double strand) [Ntf3-3 site]
[50]
  activity (fold activation (approx)): > 1000

## TTCTGTTCACGGGACTCA (double strand) [Ntf3-1 site]
[51]
  activity (fold activation (approx)): > 1000

## TTGGGGGTGACCGCCGGAGCGCGGCG (double strand) [VEGF1-6 site]
[52]
  activity (fold activation): > 5.3

## TCCCGCAGCTGACCAGTCGCGCTG (double strand) [VEGF2-5 site]
[53]
  activity (fold activation): > 5.3

## TCCACCCCGCCTCCGGGCGCGG (double strand) [VEGF9-4 site]
[54]
  activity (fold activation): > 5.3

## TTGGGGGTGACCGCCG (double strand) [VEGF1-1 site]
[55]
  activity (fold activation): > 5.3

## TACCACCTCCTCCCCGGCCGGC (double strand) [VEGF3-4 site]
[56]
  activity (fold activation): > 5.3

## TCCACCCCGCCTCCGGGCGCGGGC (double strand) [VEGF9-5 site]
[57]
  activity (fold activation): > 5.3

## TCCACTGTCCGCCGCC (double strand) [VEGF8-1 site]
[58]
  activity (fold activation): > 5.3
